Assay results: patent publication US20260193335A1 (ZOETIS SERVICES, published 2026)
Where a chain is given by its changes, count along the chain named. Names and notes keep the numbering of the source.

B1: Anti-NGF antibody of Table 3, S434M (antibody)
heavy: DVQLVESGGDLVKPGGSLRLTCVASGFTYSNYWMHWVRQAPGKGLQWVARIDPYGGGTKHNEKFKRRFTISRDNAKNTLYLQMNSLKTEDTATYYCVRSGYDYYFDVWGQGTLVTVSSASTTAPSVFPLAPSCGTTSGATVALACLVLGYFPEPVTVSWNSGALTSGVHTFPAVLQASGLYSLSSMVTVPSSRWLSDTFTCNVAHPPSNTKVDKTVRKTDHPPGPKPCDCPKCPPPEMLGGPSIFIFPPKPKDTLSISRTPEVTCLVVDLGPDDSDVQITWFVDNTQVYTAKTSPREEQFNSTYRVVSVLPILHQDWLKGKEFKCKVNSKSLPSPIERTISKAKGQPHEPQVYVLPPAQEELSRNKVSVTCLIKSFHPPDIAVEWEITGQPEPENNYRTTPPQLDSDGTYFVYSKLSVDRSHWQRGNTYTCSVSHEALHMHHTQKSLTQSPGK
light: EIQMTQSPSSLSASPGDRVTITCRASENIYSFLAWYQQKPGKVPKLLIYNANTLAEGVPSRFSGSGSGTDFTLTISSLEPEDAATYYCQHHFGTPFTFGSGTKLEIKRSDAQPSVFLFQPSLDELHTGSASIVCILNDFYPKEVNVKWKVDGVVQNKGIQESTTEQNSKDSTYSLSSTLTMSSTEYQSHEKFSCEVTHKSLASTLVKSFQRSECQRE
B2: Anti-NGF antibody of Table 3, S434P (antibody)
heavy: B1 heavy with M440P
light: B1 light
B3: Anti-NGF antibody of Table 3, S434Q (antibody)
heavy: B1 heavy with M440Q
light: B1 light
B4: Anti-NGF antibody of Table 3, S434N (antibody)
heavy: B1 heavy with M440N
light: B1 light
B5: mAb1 (felinized anti-IL31 antibody) wild-type, feline IgG1a (antibody, part only; not given: Anti-IL31 heavy and light variable domains, part only)
heavy, part: ASTTAPSVFPLAPSCGTTSGATVALACLVLGYFPEPVTVSWNSGALTSGVHTFPAVLQASGLYSLSSMVTVPSSRWLSDTFTCNVAHPPSNTKVDKTVRKTDHPPGPKPCDCPKCPPPEMLGGPSIFIFPPKPKDTLSISRTPEVTCLVVDLGPDDSDVQITWFVDNTQVYTAKTSPREEQFNSTYRVVSVLPILHQDWLKGKEFKCKVNSKSLPSPIERTISKAKGQPHEPQVYVLPPAQEELSRNKVSVTCLIKSFHPPDIAVEWEITGQPEPENNYRTTPPQLDSDGTYFVYSKLSVDRSHWQRGNTYTCSVSHEALHSHHTQKSLTQSPGK
B6: mAb1 (felinized anti-IL31 antibody) S428L, feline IgG1a (antibody, part only; not given: Anti-IL31 heavy and light variable domains, part only)
heavy, part: B5 heavy, part with S316L
B7: mAb6 (felinized anti-TGFβ antibody of Tables 1 and 2) S428L, feline IgG1a (antibody, part only; not given: Anti-TGFβ variable domains, antibody unnamed, part only)
heavy, part: B5 heavy, part with S316L
B8: mAb6 (felinized anti-TGFβ antibody of Tables 1 and 2) wild-type, feline IgG1a (antibody, part only; not given: Anti-TGFβ variable domains, antibody unnamed, part only)
heavy, part: B5 heavy, part
B9: mAb2 (felinized anti-NGF antibody) wild-type, feline IgG1a (antibody, part only; not given: Anti-NGF heavy and light variable domains, part only)
heavy, part: B5 heavy, part
B10: mAb2 (felinized anti-NGF antibody) S428L, feline IgG1a (antibody, part only; not given: Anti-NGF heavy and light variable domains, part only)
heavy, part: B5 heavy, part with S316L
B11: mAb4 (felinized anti-IL31 antibody ZTS-5864) S428Q, feline IgG1a (antibody)
heavy: DVQLVESGGDLVKPGGSLRLTCVASGFTFSDYAMSWVRQAPGKGLQWVAGIDSVGSGTSYADSVKGRFTISRDNAKNTLYLQMNSLKTEDTATYYCASGFPGSFEHWGQGTLVTVSSASTTAPSVFPLAPSCGTTSGATVALACLVLGYFPEPVTVSWNSGALTSGVHTFPAVLQASGLYSLSSMVTVPSSRWLSDTFTCNVAHPPSNTKVDKTVRKTDHPPGPKPCDCPKCPPPEMLGGPSIFIFPPKPKDTLSISRTPEVTCLVVDLGPDDSDVQITWFVDNTQVYTAKTSPREEQFNSTYRVVSVLPILHQDWLKGKEFKCKVNSKSLPSPIERTISKAKGQPHEPQVYVLPPAQEELSRNKVSVTCLIKSFHPPDIAVEWEITGQPEPENNYRTTPPQLDSDGTYFVYSKLSVDRSHWQRGNTYTCSVQHEALHSHHTQKSLTQSPGK
VL: QSVLTQPSSVSGTLGQRITISCTGSSSNIGSGYVGWYQQVPGMGPKTVIYYNSDRPSGVPDRFSGSKSGSSGTLTITGLQAEDEADYYCSVYDRTFNAVFGGGT
notes: also called mAb4 ID No. 15
B12: mAb4 (felinized anti-IL31 antibody ZTS-5864) S428P, feline IgG1a (antibody)
heavy: B11 heavy with Q433P
VL: B11 VL
notes: also called mAb4 ID No. 14
B13: mAb4 (felinized anti-IL31 antibody ZTS-5864) S428R, feline IgG1a (antibody)
heavy: B11 heavy with Q433R
VL: B11 VL
notes: also called mAb4 ID No. 16
B14: mAb4 (felinized anti-IL31 antibody ZTS-5864) S428M and S434W, feline IgG1a (antibody)
heavy: B11 heavy with Q433M, S439W
VL: B11 VL
notes: also called mAb4 ID No. 36
B15: mAb4 (felinized anti-IL31 antibody ZTS-5864) S428M and S434F, feline IgG1a (antibody)
heavy: B11 heavy with Q433M, S439F
VL: B11 VL
notes: also called mAb4 ID No. 33
B16: mAb4 (felinized anti-IL31 antibody ZTS-5864) S428W, feline IgG1a (antibody)
heavy: B11 heavy with Q433W
VL: B11 VL
notes: also called mAb4 ID No. 19
B17: mAb4 (felinized anti-IL31 antibody ZTS-5864) S428T, feline IgG1a (antibody)
heavy: B11 heavy with Q433T
VL: B11 VL
notes: also called mAb4 ID No. 17
B18: mAb4 (felinized anti-IL31 antibody ZTS-5864) S428Y and S434W, feline IgG1a (antibody)
heavy: B11 heavy with Q433Y, S439W
VL: B11 VL
notes: also called mAb4 ID No. 31
B19: mAb4 (felinized anti-IL31 antibody ZTS-5864) WT, feline IgG1a (antibody)
heavy: B11 heavy with Q433S
VL: B11 VL
notes: The same holds for all mAb4 variants; also called mAb4 ID No. 1
B20: mAb4 (felinized anti-IL31 antibody ZTS-5864) S428L, feline IgG1a (antibody)
heavy: B11 heavy with Q433L
VL: B11 VL
notes: also called mAb4 ID No. 11
B21: mAb4 (felinized anti-IL31 antibody ZTS-5864) S434H, feline IgG1a (antibody)
heavy: B11 heavy with Q433S, S439H
VL: B11 VL
notes: also called mAb4 ID No. 00

What follows are binders tested against T1, Feline FcRn (complex of FcRn-α subunit and β-microglobulin, C-terminal His tag) (feline, UniProt A0ABI7ZNY9 23-296; Q5MGS7 21-118) (assay: SPR Biacore, FcRn amine-coupled on CM5, pH 6).
T1 construct: treated here as one molecule
Protocol: (§1) Feline FcRn was isolated, prepared and mutant Fc IgGs were assayed against feline FcRn according to Strietzelg et. al. Standard RACE PCR was used to amplify feline FcRn-α subunit and β-microglobulin. FcRn-α subunit and β-microglobulin were co-transfected into HEK 293 cells and the FcRn complex was purified by IMAC affinity purification via the c-terminal His tag. KD's were measured by Biacore 3000 or Biacore T200 (GE Healthcare, Pittsburgh, PA, USA) using a CM5 sensor chip.
(§2) FcRn was immobilized on the surface of the sensor using the standard amine immobilization method to reach the desired surface density. HBS-EP was used as the immobilization running buffer and 10 mM MES; 150 mM NaCl; 0.005% Tween20; 0.5 mg/mL BSA; pH6 and pH7.2 and PBS; 0.005% Tween20; 0.5 mg/mL BSA; pH7.4 were used for method running buffers and titrations. Fc mutant IgGs were flowed over receptor surfaces and affinity was determined using Scrubber2 software analysis (BioLogic Software Pty, Ltd., Campbell, Australia) or T200 evaluation software (Table 2). Blank runs containing buffer only were subtracted out from all runs. Flow cells were regenerated using 50 mM Tris pH8. Runs were performed at 15° C.
Work on B1 yielded a Kd of 2.8 nM.
In the case of B2, the Kd is reported as 5.64 nM.
B3 showed a Kd of 4.8 nM.
B4 showed a Kd of 6.94 nM.

The binders below were run against IL31 (target of felinized anti-IL31 antibody mAb1) (assay: SPR Biacore T200, target amine-coupled, 15 C).
With B5 the Kd was 0.0223 nM.
B6 showed a Kd of 0.0228 nM.

Each binder was assayed against TGFβ (target of felinized anti-TGFβ antibody mAb6) (assay: SPR Biacore T200, target amine-coupled, 15 C).
B7 gave a Kd of 0.0843 nM.
B8 showed a Kd of 0.00375 nM.

These binders were tested against NGF (target of felinized anti-NGF antibodies mAb2 and mAb3) (assay: SPR Biacore T200, target amine-coupled, 15 C).
B9 showed a Kd of 0.023 nM.
Binder B10 has a Kd of 0.008 nM.

Each binder was assayed against T1, Feline FcRn (complex of FcRn-α subunit …) (assay: SPR Biacore, biotin-FcRn on SA chip, pH 7.4).
Protocol: (§3) Feline FcRn was isolated, prepared and mutant Fc IgGs were assayed against feline FcRn according to Strietzel et. al., discussed above. Standard PCR was used to amplify feline FcRn-α subunit and β-microglobulin. FcRn-α subunit and β-microglobulin were co-transfected into HEK 293 cells and the FcRn complex was purified by IMAC affinity purification via the c-terminal His tag. FcRn complex was biotin labeled through BirA enzymatic biotinylatoin reaction. KD's were measured by Biacore T200 (GE Healthcare, Pittsburgh, PA, USA) or Biacore 8K (Cytiva, Marlborough, MA, USA) using a SA sensor chip.
(§4) FcRn was captured on the surface of the sensor using a modified SA capture method. 10 mM MES; 150 mM NaCl; 0.005% Tween20; 0.5 mg/mL BSA; pH6 was used as capture, method running buffer and titrations. 1×HBS-P, 0.5 mg/mL BSA; pH7.4 was also used for method running buffer and titrations. Fc mutant IgGs were flowed over receptor surfaces and affinity was determined using T200 evaluation software or Biacore Insight Evaluation software. Blank runs containing buffer only were subtracted out from all runs. Flow cells were regenerated using 50 mM Tris pH8 or pH9. Runs were performed at 15° C.
B11: no binding.
B12: no binding.
B13: no binding.
B14 showed a Kd of 5010 nM.
Work on B15 yielded a Kd of 4010 nM.
B16: no binding.
B17: no binding.
For B18, the Kd was 431 nM.

The binders below were run against TGFβ (target of felinized anti-TGFβ antibody mAb6) (assay: cell-based or functional assay).
With B7 the IC50 (cell based potency assay) was 10 nM.
Binder B8 has an IC50 (cell based potency assay) of 9 nM.

Each binder was assayed against NGF (target of felinized anti-NGF antibodies mAb2 and mAb3) (assay: cell-based or functional assay).
Binder B9 has an IC50 (cell based potency assay) of 0.69 nM.
For B10, the IC50 (cell based potency assay) was 0.58 nM.

These binders were tested against T1, Feline FcRn (complex of FcRn-α subunit …) (assay: SPR Biacore, biotin-FcRn on SA chip, pH 6; pH 6).
Protocol: as §3, §4
For B19, the Kd was 32 nM.
B20 was tested, and the Kd was 15.5 nM.
B21 showed a Kd of 4.88 nM.

The binders below were run against T1, Feline FcRn (complex of FcRn-α subunit …) (assay: SPR Biacore, FcRn amine-coupled on CM5, pH 7.2).
Protocol: as §1, §2
With B1 the Kd was 1.92 nM.
For B2, the Kd was 0.0157 nM.
With B3 the Kd was 0.0801 nM.
B4 gave a Kd of 0.00847 nM.

Each binder was assayed against Feline FcRn (complex of FcRn-α subunit and β-microglobulin, C-terminal His tag) (feline) (assay: SPR Biacore, FcRn amine-coupled on CM5, pH 7.2).
Feline FcRn (complex of FcRn-α subunit and β-microglobulin, C-terminal His tag) (feline), sequence (chain, as listed by the source, chain 1 of 2): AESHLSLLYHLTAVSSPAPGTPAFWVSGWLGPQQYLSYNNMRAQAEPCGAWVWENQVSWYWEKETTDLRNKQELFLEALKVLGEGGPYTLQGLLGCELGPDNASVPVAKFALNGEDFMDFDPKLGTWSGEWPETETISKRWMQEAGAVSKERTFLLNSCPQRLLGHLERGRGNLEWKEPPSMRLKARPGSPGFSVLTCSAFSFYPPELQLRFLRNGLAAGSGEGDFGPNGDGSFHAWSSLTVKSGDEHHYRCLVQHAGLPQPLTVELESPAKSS
Feline FcRn (complex of FcRn-α subunit and β-microglobulin, C-terminal His tag) (feline), sequence (Q5MGS7 21-118, chain 2 of 2): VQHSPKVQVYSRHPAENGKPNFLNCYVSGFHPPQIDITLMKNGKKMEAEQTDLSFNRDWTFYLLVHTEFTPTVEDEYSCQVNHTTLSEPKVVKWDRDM
Binder B9 has a Kd of 380 nM.
Work on B6 yielded a Kd of 180 nM.
B7 gave a Kd of 230 nM.
With B10 the Kd was 60 nM.

Each binder was assayed against T1, Feline FcRn (complex of FcRn-α subunit …) (assay: SPR Biacore, biotin-FcRn on SA chip, pH 6).
Procedure, shortened: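 Runs at 15° C used either pH 6 buffer (10 mM MES, 150 mM NaCl, 0.005% Tween20, 0.5 mg/mL BSA) or pH 7.4 buffer (1×HBS-P, 0.5 mg/mL BSA), with Fc mutant IgGs as analytes. Receptor was biotinylated feline FcRn complex (co-expressed in HEK 293) on an SA chip. Affinities from blank-subtracted SPR data.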
Binder B14 has a Kd of 6.83 nM.
In the case of B15, the Kd is reported as 4.29 nM.
B18 gave a Kd of 7.8 nM.

The binders below were run against Feline FcRn (complex of FcRn-α subunit and β-microglobulin, C-terminal His tag) (feline) (assay: SPR Biacore, FcRn amine-coupled on CM5, pH 6).
B9 was tested, and the Kd was 25 nM.
In the case of B5, the Kd is reported as 12.1 nM.
Binder B6 has a Kd of 3.77 nM.
B7 showed a Kd of 15 nM.
B10 gave a Kd of 1.51 nM.
With B8 the Kd was 120 nM.
